Source: IntAct's records for PubMed 21577200

Target: spop_human SPOP (UniProt O43791)
Sequence (O43791 whole entry): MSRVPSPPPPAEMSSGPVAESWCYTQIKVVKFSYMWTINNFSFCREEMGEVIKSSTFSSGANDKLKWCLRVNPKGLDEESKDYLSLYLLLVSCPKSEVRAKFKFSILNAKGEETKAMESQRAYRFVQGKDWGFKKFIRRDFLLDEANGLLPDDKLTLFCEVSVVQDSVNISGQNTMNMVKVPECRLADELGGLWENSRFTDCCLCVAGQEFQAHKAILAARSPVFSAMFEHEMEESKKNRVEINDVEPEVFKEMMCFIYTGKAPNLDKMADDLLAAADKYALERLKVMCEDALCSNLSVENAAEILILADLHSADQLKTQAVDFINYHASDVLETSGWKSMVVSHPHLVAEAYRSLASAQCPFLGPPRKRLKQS

Substance | effect of a mutation on the interaction
Nuclear receptor coactivator 3 (Homo sapiens), Q9Y6Q9 S101A;S102A | disrupting interaction
Nuclear receptor coactivator 3 (Homo sapiens), Q9Y6Q9 S102A | disrupting interaction
